The record followed here is patent US20120093805A1.

The assay concerns the target sugar chain-deficient cynomolgus CD27 (C-terminal His tag) expressed on Lec8 cells (cynomolgus). Put plainly: flow cytometry (FCM) on cynomolgus CD27/Lec8 cells (Example 11(5)) [A]. In general terms: A flow cytometer gives signals particle by particle.

B1: anti-sugar chain-deficient CD27 chimeric antibody chimeric KM4030 (antibody, human IgG1, V domains shown)
VH: EVQLVESGGGLVQPGRSLKLSCVASGFTFNNYWMTWIRQAPGKGLEWIASITNSGGSTYYPDSVKGRFTISRDNAKGTLYLQMNSLRSEDTATYYCTRDVNTYYGYNALFDYWGQGVMVTVSS
VL: DIQMTQSPSVLSASVGDRVTLNCKASQNINEYLNWYQQKLGEAPKLLIYNTNNLQTGIPSRFSGSGSGTDFTLTISSLQPEDFAAYFCFQHNSWPYTFGAGTKLELK
In the case of B1, the 50% effective concentration (EC50 (read off the curve)) is 0.2 µg/mL.

One may read the EC50 (read off the curve) as the concentration giving half of the maximal effect. Low values mean higher potency in that assay, high ones lower potency in that assay.
